Where only a bound is given, the exact number is not on record here.

A word on the IC50: it is the concentration that inhibits the measured activity by half. The low end stands for inhibition by little substance, the high end for a need for much substance. By stoichiometry N is commonly meant a count of units in the complex or per binding partner.

Assay [1] concerns the target GST-DDB1 (UniProt Q16531). Put plainly: AlphaScreen or HTRF; TR-FRET competition; 3 nM coexpressed His-HBx:GST-DDB1 complex preincubated with increasing untagged competitor 1 h at room temperature; Eu-cryptate anti-His and d2 anti-GST antibodies; 20 mM HEPES pH 7.2, 50 mM NaCl, 0.1 mg/ml BSA, 0.01% Brij-35, 0.5 mM TCEP. In general terms: In Alpha technology, singlet oxygen from a donor bead excites a nearby acceptor bead.

For assay [2], the target named is GST-DDB1 (UniProt Q16531). Put plainly: AlphaScreen or HTRF; TR-FRET competition; 5 nM His-HBx and 5 nM GST-DDB1 expressed separately, preincubated with increasing untagged competitor 30 min at room temperature; Eu-cryptate anti-His and d2 anti-GST antibodies; 25 mM HEPES pH 7.2, 400 mM NaCl, 0.1 mg/ml BSA, 0.01% Brij-35, 0.5 mM TCEP.
For assay [3], the target named is His-HBx coexpressed with GST-DDB1 (hepatitis B virus (genotype D)) (UniProt P03165). As to the kind of experiment: AlphaScreen or HTRF; TR-FRET competition; 3 nM coexpressed His-HBx:GST-DDB1 complex preincubated with increasing untagged competitor 1 h at room temperature; Eu-cryptate anti-His and d2 anti-GST antibodies; 20 mM HEPES pH 7.2, 50 mM NaCl, 0.1 mg/ml BSA, 0.01% Brij-35, 0.5 mM TCEP.

The target of assay [4] is His-HBx expressed alone (detergent solubilized) (hepatitis B virus (genotype D)) (UniProt P03165). Put plainly: AlphaScreen or HTRF; TR-FRET competition; 5 nM His-HBx and 5 nM GST-DDB1 expressed separately, preincubated with increasing untagged competitor 30 min at room temperature; Eu-cryptate anti-His and d2 anti-GST antibodies; 25 mM HEPES pH 7.2, 400 mM NaCl, 0.1 mg/ml BSA, 0.01% Brij-35, 0.5 mM TCEP.

In assay [5] the target is DDB1 (UniProt Q16531). As to the kind of experiment: AUC; sedimentation velocity at 20 C, absorbance at 280 nm, c(s) distribution (SEDFIT), each protein in its final storage buffer.
Assay [6] addresses T1, GST-DDB1 (UniProt Q16531 1-1140).
T1 construct: also called glutathione S-transferase (GST)-DDB1; not shown: GST, N-terminal, kept
Put plainly: AlphaScreen or HTRF; TR-FRET competition; 3 nM coexpressed His-HBx:GST-DDB1 complex preincubated with increasing untagged competitor 1 h at room temperature; Eu-cryptate anti-His and d2 anti-GST antibodies; 20 mM HEPES pH 7.2, 50 mM NaCl, 0.1 mg/ml BSA, 0.01% Brij-35, 0.5 mM TCEP. To be noted: both partners purified.

The target of assay [7] is T1, GST-DDB1. As to the kind of experiment: AlphaScreen or HTRF; TR-FRET competition; 5 nM His-HBx and 5 nM GST-DDB1 expressed separately, preincubated with increasing untagged competitor 30 min at room temperature; Eu-cryptate anti-His and d2 anti-GST antibodies; 25 mM HEPES pH 7.2, 400 mM NaCl, 0.1 mg/ml BSA, 0.01% Brij-35, 0.5 mM TCEP. To be noted: both partners purified.

As to “recombinant untagged HBx (from UniProt P03165 1-154) (natural protein)”, the IC50 in assay [1] was 9 nM; in assay [2], 61 nM.

For “HBx H-box peptide (R96E mutant) (from UniProt P03165 88-102) (peptide; other documents disagree on this pair)”, the half-inhibitory concentration (IC50) in assay [1] was greater than 100000 nM.

As to “DDB1 (from UniProt Q16531 1-1140) (natural protein)”, the IC50 in assay [3] was 16 nM; in assay [4], 204 nM.

As for “HBx coexpressed with DDB1 (HBx:DDB1 coexpressed complex) (from UniProt P03165 1-154) (natural protein)”, the stoichiometry N in assay [5] is 1.

As to ILPKVLHKRTLGLSA [HBx H-box peptide (wild type)], the half-maximal inhibitory concentration (IC50) is 1560 nM in assay [6] and 5000 nM in assay [7].

B1: SV5-V (natural protein)
chain: MDPTDLSFSPDEINKLIETGLNTVEYFTSQQVTGTSSLGKNTIPPGVTGLLTNAAEAKIQESTNHQKGSVGGGAKPKKPRPKIAIVPADDKTVPGKPIPNPLLGLDSTPSTQTVLDLSGKTLPSGSYKGVKLAKFGKENLMTRFIEEPRENPIATSSPIDFKRGRDTGGFHRREYSIGWVGDEVKVTEWCNPSCSPITAAARRFECTCHQCPVTCSECERDT
notes: also called V protein of paramyxovirus SV5; source: E. coli Rosetta, purified (glutathione agarose, thrombin cleavage, MonoQ, Superdex 75); not shown: GST, N-terminal, cleaved
Consider B1, for which the IC50 in assay [6] stood at 4 nM; in assay [7] it was 7 nM.

For the origin of these results see PMC6675892, “Hepatitis B Virus X Protein Function Requires Zinc Binding” (Journal of Virology, 2019).
